The record followed here is article PMC7144902, “Absence of MeCP2 binding to non-methylated GT-rich sequences in vivo”.

What all share (settings): protein: recombinant; tags: C-terminal His; label: 32P; blunt
In data set [1] the target is T1, MeCP2[1-205] (Homo sapiens, UniProt P51608 1-205). The data set is described as follows: EMSA; similar to GGTGT and mCAC; EMSA: 10 mM Tris-HCl pH 7.5, 150 mM KCl (250 mM for MeCP2[1-486]), 0.1 mg/ml BSA, 5% glycerol, 0.1 mM EDTA, 1 ug poly(dA-dT), 1 ng probe, 20 ul, 30 min on ice. On the technique in general: Mobility shift assays separate free from complexed probe on a gel.

Data set [2] deals with T1, MeCP2[1-205]. In words: EMSA; comparable to mCAC, lower than mCG; EMSA: 10 mM Tris-HCl pH 7.5, 150 mM KCl (250 mM for MeCP2[1-486]), 0.1 mg/ml BSA, 5% glycerol, 0.1 mM EDTA, 1 ug poly(dA-dT), 1 ng probe, 20 ul, 30 min on ice.
The target of data set [3] is T1, MeCP2[1-205]. The data set is described as follows: EMSA; only marginal effect; EMSA: 10 mM Tris-HCl pH 7.5, 150 mM KCl (250 mM for MeCP2[1-486]), 0.1 mg/ml BSA, 5% glycerol, 0.1 mM EDTA, 1 ug poly(dA-dT), 1 ng probe, 20 ul, 30 min on ice.
In data set [4] the target is T1, MeCP2[1-205]. In words: EMSA; stronger than mCAC and GGTGT; EMSA: 10 mM Tris-HCl pH 7.5, 150 mM KCl (250 mM for MeCP2[1-486]), 0.1 mg/ml BSA, 5% glycerol, 0.1 mM EDTA, 1 ug poly(dA-dT), 1 ng probe, 20 ul, 30 min on ice.
The target in a further data set is MeCP2[1-486] (Homo sapiens, UniProt P51608 1-486). In words: EMSA; 250 mM KCl; preferred over CG; EMSA: 10 mM Tris-HCl pH 7.5, 150 mM KCl (250 mM for MeCP2[1-486]), 0.1 mg/ml BSA, 5% glycerol, 0.1 mM EDTA, 1 ug poly(dA-dT), 1 ng probe, 20 ul, 30 min on ice.
The target in data set [5] is T1, MeCP2[1-205]. In words: EMSA; background only; EMSA: 10 mM Tris-HCl pH 7.5, 150 mM KCl (250 mM for MeCP2[1-486]), 0.1 mg/ml BSA, 5% glycerol, 0.1 mM EDTA, 1 ug poly(dA-dT), 1 ng probe, 20 ul, 30 min on ice.
In data set [6] the target is T1, MeCP2[1-205]. In words: EMSA; EMSA: 10 mM Tris-HCl pH 7.5, 150 mM KCl (250 mM for MeCP2[1-486]), 0.1 mg/ml BSA, 5% glycerol, 0.1 mM EDTA, 1 ug poly(dA-dT), 1 ng probe, 20 ul, 30 min on ice.
The target in another data set is MeCP2[77-167] (Homo sapiens, UniProt P51608 77-167). The data set is described as above.
Data set [7] addresses T1, MeCP2[1-205]. In words: EMSA; no significant binding; EMSA: 10 mM Tris-HCl pH 7.5, 150 mM KCl (250 mM for MeCP2[1-486]), 0.1 mg/ml BSA, 5% glycerol, 0.1 mM EDTA, 1 ug poly(dA-dT), 1 ng probe, 20 ul, 30 min on ice.

B1: GT3 (dsDNA)
DNA 1: AAGCATGCAATGCCCTGGAAGTGTGTAATTCTTCTAATAAAAGATGTATCATTTTAAATGC
DNA 2: GCATTTAAAATGATACATCTTTTATTAGAAGAATTACACACTTCCAGGGCATTGCATGCTT
Take B1: the binding result with MeCP2[1-205] [1] is recorded as “binds”.

B2: GGTGT (dsDNA)
DNA 1: AAGCATGCAATGCCCTGGAAGGTGTAATTCTTCTAATAAAAGATGTATCATTTTAAATGC
DNA 2: GCATTTAAAATGATACATCTTTTATTAGAAGAATTACACCTTCCAGGGCATTGCATGCTT
For the molecule B2, in the data set with MeCP2[1-205] [2], the binding result is listed as “binds”.

B3: GGTGU (dsDNA)
DNA 1: AAGCATGCAATGCCCTGGAAGGTGUAATTCTTCTAATAAAAGATGTATCATTTTAAATGC
DNA 2: GCATTTAAAATGATACATCTTTTATTAGAAGAATTACACCTTCCAGGGCATTGCATGCTT
modifications: 3' motif T replaced by deoxyuridine
For the molecule B3, in the data set with MeCP2[1-205] [3], the binding result is given as “binds”.

B4: GT5 (dsDNA)
DNA 1: AAGCATGCAATGCCCTGGAAGTGTGTGTGTAATTCTTCTAATAAAAGATGTATCATTTTAAATGC
DNA 2: GCATTTAAAATGATACATCTTTTATTAGAAGAATTACACACACACTTCCAGGGCATTGCATGCTT
For B4, the binding result with MeCP2[1-205] [1] is “binds”.

B5: GT2 (dsDNA)
DNA 1: AAGCATGCAATGCCCTGGAAGTGTAATTCTTCTAATAAAAGATGTATCATTTTAAATGC
DNA 2: GCATTTAAAATGATACATCTTTTATTAGAAGAATTACACTTCCAGGGCATTGCATGCTT
As for B5, in the data set with MeCP2[1-205] [1], the binding result is given as “binds”.

B6: GT4 (dsDNA)
DNA 1: AAGCATGCAATGCCCTGGAAGTGTGTGTAATTCTTCTAATAAAAGATGTATCATTTTAAATGC
DNA 2: GCATTTAAAATGATACATCTTTTATTAGAAGAATTACACACACTTCCAGGGCATTGCATGCTT
Regarding B6, the binding result in the data set with MeCP2[1-205] [1] was “binds”.

B7: mCG (dsDNA)
DNA 1: AAGCATGCAATGCCCTGGAACGGAATTCTTCTAATAAAAGATGTATCATTTTAAATGC
DNA 2: GCATTTAAAATGATACATCTTTTATTAGAAGAATTCCGTTCCAGGGCATTGCATGCTT
modifications: 5mC at strand 1 position 21; reverse strand the appropriate methylated oligo (position not given)
In the case of B7, the binding result in the data set with MeCP2[1-205] [4] and in the data set with MeCP2[1-486] was “binds” throughout.

B8: CAC (dsDNA)
DNA 1: AAGCATGCAATGCCCTGGAACACAATTCTTCTAATAAAAGATGTATCATTTTAAATGC
DNA 2: GCATTTAAAATGATACATCTTTTATTAGAAGAATTGTGTTCCAGGGCATTGCATGCTT
With B8, the binding result with MeCP2[1-205] [5] was “no binding”.

B9: mCAC (dsDNA)
DNA 1: AAGCATGCAATGCCCTGGAACACAATTCTTCTAATAAAAGATGTATCATTTTAAATGC
DNA 2: GCATTTAAAATGATACATCTTTTATTAGAAGAATTGTGTTCCAGGGCATTGCATGCTT
modifications: 5mC at strand 1 position 21
On to B9, for which the binding result in the data set with MeCP2[1-205] [6] and in the data set with MeCP2[77-167] was “binds” each time.

B10: GT1 (dsDNA)
DNA 1: AAGCATGCAATGCCCTGGAAGTAATTCTTCTAATAAAAGATGTATCATTTTAAATGC
DNA 2: GCATTTAAAATGATACATCTTTTATTAGAAGAATTACTTCCAGGGCATTGCATGCTT
Turning to B10, the binding result in the data set with MeCP2[1-205] [7] is on record as “no binding”.
